Test results: PMC9881158, “The DEAD-box protein Dbp6 is an ATPase and RNA annealase interacting with the peptidyl transferase center (PTC) of the ribosome” (Nucleic Acids Research, 2023)
Numbering of substitutions follows the chain as printed.

What was measured:
Dbp6 ΔN [1] = target: T1, Dbp6 ΔN (Saccharomyces cerevisiae, UniProt P53734 1-629, del24-128); assay: EMSA; 0.5 uM protein; like WT; EMSA: 1 nM 32P-RNA, RB 1x (composition not in the material), RNasin, 15 min at 30 C, native PAGE in TBE; bridging: 0.8 uM Dbp6, RB 1x, 15 min at 30 C; conditions: protein: recombinant; tags: N-terminal His6; chain copies: 2; label: 32P
T1 sequence: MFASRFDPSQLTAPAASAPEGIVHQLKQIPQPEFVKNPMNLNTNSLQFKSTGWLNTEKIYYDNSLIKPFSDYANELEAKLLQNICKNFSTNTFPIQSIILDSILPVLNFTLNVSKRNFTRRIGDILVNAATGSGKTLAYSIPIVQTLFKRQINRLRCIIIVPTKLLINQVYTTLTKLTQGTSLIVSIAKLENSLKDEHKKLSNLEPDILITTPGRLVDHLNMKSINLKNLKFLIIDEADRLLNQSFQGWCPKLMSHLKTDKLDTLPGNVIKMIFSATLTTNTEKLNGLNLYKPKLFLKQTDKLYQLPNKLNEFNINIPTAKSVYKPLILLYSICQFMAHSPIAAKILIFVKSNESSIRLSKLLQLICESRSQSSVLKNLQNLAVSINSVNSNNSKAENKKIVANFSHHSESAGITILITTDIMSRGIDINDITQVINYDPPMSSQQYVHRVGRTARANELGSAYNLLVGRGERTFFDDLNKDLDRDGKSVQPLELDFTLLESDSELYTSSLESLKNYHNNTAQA

Dbp6 M-I [2] = target: T2, Dbp6 M-I (Saccharomyces cerevisiae, UniProt P53734 1-629, K240A); assay: EMSA; 0.5 uM protein; stronger than WT; EMSA: 1 nM 32P-RNA, RB 1x (composition not in the material), RNasin, 15 min at 30 C, native PAGE in TBE; bridging: 0.8 uM Dbp6, RB 1x, 15 min at 30 C; conditions: protein: recombinant; tags: N-terminal His6; chain copies: 2; label: 32P
T2 sequence: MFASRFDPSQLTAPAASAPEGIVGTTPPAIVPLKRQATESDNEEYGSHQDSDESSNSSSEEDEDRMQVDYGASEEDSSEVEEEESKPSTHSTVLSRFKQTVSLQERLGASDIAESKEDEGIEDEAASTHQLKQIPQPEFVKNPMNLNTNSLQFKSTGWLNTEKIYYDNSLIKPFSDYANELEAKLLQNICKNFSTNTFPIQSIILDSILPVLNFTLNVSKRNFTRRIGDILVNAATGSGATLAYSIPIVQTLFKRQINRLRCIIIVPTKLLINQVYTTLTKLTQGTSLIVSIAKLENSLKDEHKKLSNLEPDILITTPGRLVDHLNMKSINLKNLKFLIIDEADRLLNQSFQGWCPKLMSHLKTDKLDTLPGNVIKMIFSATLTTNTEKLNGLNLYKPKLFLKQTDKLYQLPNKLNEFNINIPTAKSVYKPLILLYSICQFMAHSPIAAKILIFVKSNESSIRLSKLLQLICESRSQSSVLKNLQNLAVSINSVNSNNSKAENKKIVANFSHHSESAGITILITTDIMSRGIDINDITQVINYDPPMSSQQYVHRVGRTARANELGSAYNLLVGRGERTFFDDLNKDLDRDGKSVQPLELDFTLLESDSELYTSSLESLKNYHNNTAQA

Dbp6 M-II = target: T3, Dbp6 M-II (Saccharomyces cerevisiae, UniProt P53734 1-629, E342A); assay: EMSA; 0.25 uM protein; stronger than WT; EMSA: 1 nM 32P-RNA, RB 1x (composition not in the material), RNasin, 15 min at 30 C, native PAGE in TBE; bridging: 0.8 uM Dbp6, RB 1x, 15 min at 30 C; conditions: protein: recombinant, tags: N-terminal His6, chain copies: 2
T3 sequence: T2 sequence with A240K, E342A

Dbp6 ΔN [3] = target: T1, Dbp6 ΔN; assay: EMSA; 0.25 uM protein; like WT; EMSA: 1 nM 32P-RNA, RB 1x (composition not in the material), RNasin, 15 min at 30 C, native PAGE in TBE; bridging: 0.8 uM Dbp6, RB 1x, 15 min at 30 C; conditions: protein: recombinant; tags: N-terminal His6; chain copies: 2; label: 32P on ss38-mer; 3' overhang 20 nt on strand 1; 38 bp region with one C-C mismatch
Dbp6 M-I [4] = target: T2, Dbp6 M-I; assay: EMSA; 0.25 uM protein; not increased over WT; EMSA: 1 nM 32P-RNA, RB 1x (composition not in the material), RNasin, 15 min at 30 C, native PAGE in TBE; bridging: 0.8 uM Dbp6, RB 1x, 15 min at 30 C; conditions: protein: recombinant; tags: N-terminal His6; chain copies: 2; label: 32P on ss38-mer; 3' overhang 20 nt on strand 1; 38 bp region with one C-C mismatch

Measured: binding result

B1: ss38-mer (ssRNA)
RNA: CAGAACCGCUACACUGAAAUGAUCAAUUCCGGUCUCCC
binds: Dbp6 ΔN [1] | Dbp6 M-I [2] | Dbp6 M-II; label: 32P

B2: ds38/58 hemi-duplex (dsRNA)
RNA 1: GGGAGACCGGAAUUCAUCAUUUCAGUGUAGCGGUUCUGACGUGCAAAUCGAUCGUCGA
RNA 2: B1 RNA
binds: Dbp6 ΔN [3] | Dbp6 M-II; label: 32P on ss38-mer, 3' overhang 20 nt on strand 1, 38 bp region with one C-C mismatch | Dbp6 M-I [4]
